According to patent US12558403B2, “Anti-tumor fusion protein, preparation method therefor and application thereof” (GUANGDONG TAIHE MEDICINE SCIENCE & TECHNOLOGY CO., LTD, priority 2020, dated 2026):
Marks after values point to notes of the source that are not given here.

Legend:
lung cancer cells H460 = assay: Killing of tumor cells by stimulated T cells, CytoTox 96 non-radioactive cytotoxicity assay; settings: T cells stimulated with 40 μg/mL for 4 days, effector-target ratio 20:1
Description: CytoTox 96 non-radioactive cytotoxicity assay was used to detect the killing effect of L1, L2, D1 and D2 polypeptides (40 μg/mL) on lung cancer cells H460 after stimulating human T lymphocytes for 4 days, respectively.

[1] = test system: breast cancer cell line MDA-MB-231; assay: as above; assay type: cell-based, human; settings: effector-target ratio 30:1
Description: (§1) Three protein concentrations (20 μg/mL, 40 μg/mL, 80 μg/mL) of TAT-SHP2-N-SH2 fusion protein were selected to stimulate human T lymphocytes and the killing effect on tumor cells MDA-MB-231 and SW480, respectively at an effector-target ratio of 30:1 was detected by CytoTox 96 non-radioactive cytotoxicity assay.

[2] = test system: colon cancer cell line SW480; assay: as above; assay type: cell-based, human; settings: effector-target ratio 30:1
Description: as §1

T lymphocytes [3] = assay: T lymphocyte proliferation detected by CFSE; assay type: cell-based; settings: 80 μg/mL, 3 days, control group 62.83%
Description: Compared with the control group, p>0.05 has no statistical significance.
To test whether recombinant TAT-N-SH2 fusion protein and L1 (TAT-SHP2-C-SH2) polypeptide can enhance the proliferation of T lymphocytes, we used 80 μg/mL TAT-SHP2-N-SH2 fusion protein and TAT-SHP2-C-SH2 polypeptide to stimulate T lymphocytes for 3 days, respectively, the proliferation of T lymphocytes was detected by CFSE.

T lymphocytes [4] = assay: T lymphocyte apoptosis, Annexin V-FITC/PI flow cytometry; assay type: cell-based; settings: 80 μg/mL, 3 days, PD-L1 coated plate, compared with control group
Description: The resuspended cells are added to different groups to treat untreated groups SHP2-NC, SHP2-N-SH2 (80 μg/mL), TAT-SHP2-C-SH2 polypeptide (80 μg/mL), and then continues to culture on EASY-T stimulated plates for 3 d (50 ng of PD-L1 antibody is added 3 hours before adding the cell mixture to coat a 24-well plate at 37° C.), and the cells are collected, detection by flow cytometry after FITC and PI staining; e According to the results of flow cytometry, the proportion of apoptotic cells is counted, compared with the control group, *p<0.05 or **p<0.01.
T lymphocytes were stimulated with recombinant TAT-N-SH2 fusion protein and L1 polypeptide for 3 days and the apoptosis of T lymphocytes in different treatment groups was detected by flow cytometry. […] FIG. 13e, according to the results of flow cytometry, the proportion of apoptotic cells was counted, compared with the control group, *p<0.05 or **p<0.01.

ERK, AKT and JNK = assay: Phosphorylation of ERK, AKT and JNK in T lymphocytes, Western-blot; assay type: cell-based; settings: T lymphocytes stimulated 3 days, compared with untreated group
Description: TAT-SHP2-N-SH2 fusion protein treatment group; c. TAT-SHP2 C-SH2 polypeptide treatment group; b, d. According to Western-blot results, with β-actin as an internal reference, grayscale analysis of the phosphorylation expression of JNK, AKT and ERK proteins mediated by T lymphocytes is performed. Unpaired t-test, compared with negative control, **p<0.01, NS has no statistical difference.
The T lymphocytes stimulated by recombinant TAT-N-SH2 fusion protein and L1 (TAT-SHP2-C-SH2) polypeptide for 3 days were collected to detect the changes in the phosphorylation levels of ERK, AKT and JNK molecules.

IL-2 = assay: Cytokine IL-2 secreted by T lymphocytes; assay type: cell-based; settings: T lymphocytes stimulated 3 days, compared with control group
From the text: The T lymphocytes stimulated by recombinant TAT-N-SH2 fusion protein and L1 polypeptide for 3 days were collected to detect the level of cytokine IL-2 secreted.

MDA-MB-231 = assay: Direct killing of tumor cells, zenCell owl live cell imaging; assay type: cell-based; settings: 20, 40, 80 μg/mL, no T cells
Description: (§2) In order to detect whether the recombinant TAT-N-SH2 fusion protein and L1 polypeptide have direct killing effect on tumor cells, we co-cultured different concentrations (20 μg/mL, 40 μg/mL, 80 μg/mL) of recombinant TAT-N-SH2 fusion protein and L1 polypeptide with tumor cells MDA-MB-231 and SW480, and applied zenCell owl live cell dynamic imaging analysis system to observe its effect on tumor cells in real time.

SW480 = assay: as above; assay type: cell-based; settings: 20, 40, 80 μg/mL, no T cells
Description: as §2

MC38 colon cancer [5] = assay: MC38 colon cancer mouse subcutaneous tumor-bearing model; assay type: in vivo, mice
From the text: A subcutaneous tumor model of MC38 colon cancer mice was established.

EMT breast cancer = EMT breast cancer mouse subcutaneous tumor-bearing model; assay type: in vivo, mice
Description: Tumor weight of mice in different administration groups after 21 d dissection; b. Tumor size; Unpaired t-test, compared with control group, *p<0.05, **p<0.01, ***p<0.001.
We further evaluated the effects of TAT-SHP2SHP2-N-SH2 fusion protein and TAT-SHP2SHP2-C-SH2 polypeptide on tumor growth in mice by establishing a subcutaneous tumor-bearing model of EMT breast cancer mice. We used TAT-SHP2SHP2-C-SH2 polypeptide at 5 μg/mouse (C5), 10 μg/mouse (C10), 15 μg/mouse (C15) and 2 μg/mouse (N2), 5 μg/mouse (N5), 10 μg/mouse (N10), 15 μg/mouse (N15) of TAT-SHP2SHP2-N-SH2 fusion protein were administered by intraperitoneal injection and at the same time, the dose of 50 μg/mouse αPD-1 antibody (αPD-1) was used as the positive control drug.

MC38 colon cancer [6] = assay: MC38 colon cancer in immunodeficient nude mice; assay type: in vivo
From the text: Tumor weight of mice after 30 d dissection; b. Tumor size; c. Tumor growth curve; Unpaired t-test, compared with control group, NS: no statistical difference.
In order to exclude the direct inhibitory effect of recombinant TAT-N-SH2 fusion protein and L1 (TAT-SHP2-C-SH2) polypeptide on tumors, we selected immunodeficient nude mice to inoculate MC38 colon cancer tumors, and started administration 14 days after tumor formation, 4 days to measure the tumor volume, after 30 days, the mice were sacrificed for dissection, and the tumor weight was measured.

EMT-6 breast cancer = EMT-6 breast cancer in immune-deficient nude mice; assay type: in vivo; settings: groups C5/N5, once every other day, 8 doses
From the text: Tumor weight of mice after 21 d dissection; b. Tumor size; c. Tumor growth curve; NS: no statistical difference.
At the same time, we selected immune-deficient nude mice to inoculate EMT-6 breast cancer tumors. After 5 days of tumor formation, they were randomly divided into three groups with 6 mice in each group. Start the administration, the administration dose is the same as above, administered once every other day for a total of 8 doses, 4 days to measure tumor size, the growth curve was drawn, and the mice were sacrificed to measure the body weight on day 21.

PD-L1-KO-EMT6 = assay: PD-L1 knockout EMT-6 breast cancer xenografts in BALB/c mice; assay type: in vivo
From the text: Tumor weight of mice after 23 d dissection; b. Tumor size; c. Tumor growth curve; Unpaired t-test, compared with control group, *P<0.05, **P<0.01, ***P<0.001.
Recombinant TAT-N-SH2 fusion protein and L1 (TAT-SHP2-C-SH2) polypeptide target the ITIM motif of inhibitory receptors. […] To this end, we constructed a breast cancer EMT-6 cell line stably knocked out PD-L1 (PD-L1-KO-EMT6), inoculated into the mouse mammary fat pad, and the recombinant TAT-N-SH2 fusion protein (N5) and TAT-SHP2-C-SH2 polypeptide (C5) were administered by intraperitoneal injection at 5 μg/mouse, respectively and at the same time, a dose of 50 μg/mouse αPD-1 antibody (αPD-1) was used as the control drug.

[7] = T cells stimulated with 20 μg/ml
[8] = T cells stimulated with 40 μg/ml
[9] = T cells stimulated with 80 μg/ml
[10] = Table 4, 1.25 μg/mouse intraperitoneal, 8 administrations
[11] = Table 4, 2.5 μg/mouse intraperitoneal, 8 administrations
[12] = Table 4, 5 μg/mouse intraperitoneal, 8 administrations
[13] = Table 4, 10 μg/mouse intraperitoneal, 8 administrations
[14] = Table 5, 5 μg/mouse intraperitoneal

## CC(C)C[C@@H](NC(=O)[C@H](NC(=O)[C@@H](Cc1ccccc1)NC(=O)[C@@H](CC(=O)O)NC(=O)CNC(=O)[C@H]1CCCN1C(=O)[C@@H](Cc1c[nH]cn1)NC(=O)[C@@H](CO)NC(=O)[C@@H](CCC(N)=O)NC(=O)[C@@H](CO)NC(=O)[C@@H](CCC(=O)O)NC(=O)[C@@H](CCCNC(=N)N)NC(=O)[C@H](NC(=O)[C@H]1CCCN1C(=O)[C@H]1CCCN1C(=O)[C@@H](CCCNC(=N)N)NC(=O)[C@@H](CCCNC(=N)N)NC(=O)[C@@H](CCCNC(=N)N)NC(=O)[C@@H](CCC(N)=O)NC(=O)[C@@H](CCCNC(=N)N)NC(=O)[C@@H](CCCNC(=N)N)NC(=O)[C@@H](CCCCN)NC(=O)[C@@H](CCCCN)NC(=O)[C@@H](CCCNC(=N)N)NC(=O)CNC(=O)[C@H](N)Cc1ccc(O)cc1)C(C)C)C(C)C)C(=O)O [D1]
Lung cancer cells H460
  Cytotoxicity (%): 39.43 ± 1.31 %

## CC(C)C[C@H](NC(=O)[C@@H](NC(=O)[C@H](Cc1ccccc1)NC(=O)[C@H](CC(=O)O)NC(=O)CNC(=O)[C@@H]1CCCN1C(=O)[C@H](Cc1c[nH]cn1)NC(=O)[C@H](CO)NC(=O)[C@H](CCC(N)=O)NC(=O)[C@H](CO)NC(=O)[C@H](CCC(=O)O)NC(=O)[C@H](CCCNC(=N)N)NC(=O)[C@@H](NC(=O)[C@@H]1CCCN1C(=O)[C@@H]1CCCN1C(=O)[C@H](CCCNC(=N)N)NC(=O)[C@H](CCCNC(=N)N)NC(=O)[C@H](CCCNC(=N)N)NC(=O)[C@H](CCC(N)=O)NC(=O)[C@H](CCCNC(=N)N)NC(=O)[C@H](CCCNC(=N)N)NC(=O)[C@H](CCCCN)NC(=O)[C@H](CCCCN)NC(=O)[C@H](CCCNC(=N)N)NC(=O)CNC(=O)[C@@H](N)Cc1ccc(O)cc1)C(C)C)C(C)C)C(=O)O [L1, YGRKKRRQRRR-PP-VRESQSHPGDFVL]
[1]; [7]
  Cytotoxicity (%) MDA-MB-231: 5.933 ± 3.955^ns %
[1]; [8]
  Cytotoxicity (%) MDA-MB-231: 20.55 ± 1.157 %
[1]; [9]
  Cytotoxicity (%) MDA-MB-231: 34.8 ± 7.424 %
[2]; [7]
  Cytotoxicity (%) SW480: 20.24 ± 8.943^ns %
[2]; [8]
  Cytotoxicity (%) SW480: 31.38 ± 3.779 %
[2]; [9]
  Cytotoxicity (%) SW480: 40.19 ± 8.373 %
Lung cancer cells H460
  Cytotoxicity (%): 33.23 ± 2.32 %

B1: TAT-SHP2-N-SH2 fusion protein: TAT penetrating peptide connected to N-terminal SH2 domain of SHP2 through glycine and serine (TAT-Gly-Ser-N-SH2); SEQ ID NO.:4 (protein)
chain: YGRKKRRQRRRGSRWFHPNITGVEAENLLLTRGVDGSFLARPSKSNPGDFTLSVRRNGAVTHIKIQNTGDYYDLYGGEKFATLAELVQYYMEHHGQLKEKNGDVIELKYPLN
modifications: the fusion protein
T lymphocytes [3]
  proliferation rate of T lymphocytes: 61.05%
T lymphocytes [4]
  apoptosis of T lymphocytes: significantly decreased
ERK, AKT and JNK
  phosphorylation levels of ERK, AKT and JNK: the expression levels of p-ERK and p-AKT in the TAT-SHP2-N-SH2 fusion protein stimulation group have the most obvious changes
IL-2
  level of IL-2 secreted by T lymphocytes: significantly increased
MDA-MB-231
  direct toxic effect on tumor cells: no direct toxic effect
SW480
  direct toxic effect on tumor cells: no direct toxic effect
[1]; [7]
  Cytotoxicity (%) MDA-MB-231: 15.11 ± 6.483^ns %
[1]; [8]
  Cytotoxicity (%) MDA-MB-231: 12.55 ± 3.037 %
[1]; [9]
  Cytotoxicity (%) MDA-MB-231: 21.78 ± 3.021 %
[2]; [7]
  Cytotoxicity (%) SW480: 23.51 ± 1.432 %
[2]; [8]
  Cytotoxicity (%) SW480: 44.42 ± 5.78 %
[2]; [9]
  Cytotoxicity (%) SW480: 50.64 ± 2.068 %
MC38 colon cancer [5]; [10]
  Tumor inhibition rate %: 55.3%
  Tumor weight: 0.36 ± 0.11 g
MC38 colon cancer [5]; [11]
  Tumor inhibition rate %: 53.5%
  Tumor weight: 0.38 ± 0.11 g
MC38 colon cancer [5]; [12]
  Tumor inhibition rate %: 80.9%
  Tumor weight: 0.16 ± 0.03 g
MC38 colon cancer [5]; [13]
  Tumor inhibition rate %: 57.8%
  Tumor weight: 0.34 ± 0.08 g
MC38 colon cancer [5]; [14]
  Tumor inhibition rate %: 77.1%
  Tumor weight: 0.26 ± 0.07 g
EMT breast cancer; 2 μg/mouse intraperitoneal
  Tumor inhibition rate %: 54.9%
  Tumor weight (g): 0.56 ± 0.11* g
EMT breast cancer; 5 μg/mouse intraperitoneal
  Tumor inhibition rate %: 70.3%
EMT breast cancer; 5 μg/mouse intraperitoneal, dissection after 21 d
  Tumor weight (g): 0.37 ± 0.10** g
EMT breast cancer; 10 μg/mouse intraperitoneal
  Tumor inhibition rate %: 63%
  Tumor weight (g): 0.46 ± 0.12** g
EMT breast cancer; 15 μg/mouse intraperitoneal
  Tumor inhibition rate %: 47.9%
  Tumor weight (g): 0.64 ± 0.15* g
MC38 colon cancer [6]; groups C5/N5
  Tumor inhibition rate %: 9.9%
MC38 colon cancer [6]; groups C5/N5, sacrificed after 30 days
  Tumor weight (g): 0.25 ± 0.06^ns g
EMT-6 breast cancer
  Tumor inhibition rate %: 8.3%
EMT-6 breast cancer; day 21
  Tumor weight (g): 0.82 ± 0.13^ns g
PD-L1-KO-EMT6; 5 μg/mouse intraperitoneal
  Tumor inhibition rate %: 60.5%
PD-L1-KO-EMT6; 5 μg/mouse intraperitoneal, dissection after 23 d
  Tumor weight (g): 0.34 ± 0.20** g
PD-L1-KO-EMT6; N5 and C5 5 μg/mouse, αPD-1 antibody 50 μg/mouse
  effect on growth of PD-L1-KO-EMT6 tumors: significantly inhibit the growth of PD-L1-KO-EMT6 tumors
